{"source": "paper PMC4156530", "about": "(Journal of neurochemistry, 2014)", "proteins": {"B1": {"name": "human DJ-1 C106S, recombinant, tag-cleaved (natural protein)", "chain": "GSHMASKRALVILAKGAEEMETVIPVDVMRRAGIKVTVAGLAGKDPVQCSRDVVICPDASLEDAKKEGPYDVVVLPGGNLGAQNLSESAAVKEILKEQENRKGLIAAISAGPTALLAHEIGFGSKVTTHPLAKDKMMNGGHYTYSENRVEKDGLILTSRGPGTSFEFALAIVEALNGKEVAAQVKAPLVLKD"}, "B2": {"name": "human DJ-1 E18Q, recombinant, tag-cleaved (natural protein)", "chain": "B1 chain with E21Q, S109C", "modifications": "unlabelled preparation fully reduced; the 15N-labelled preparation of the NMR experiment 43% oxidised (Cys106-SO2-)"}, "B3": {"name": "human DJ-1 E18D, recombinant, tag-cleaved (natural protein)", "chain": "B1 chain with E21D, S109C", "modifications": "uniformly 15N-labelled in the NMR experiment; fully reduced"}}, "key": {"cross-linking": {"molecular_target": "the molecule itself", "assay": "cross-linking"}, "AUC": {"molecular_target": "the molecule itself", "assay": "AUC"}}, "note": "Numbering of substitutions follows the chain as printed. Numbers in names are those of the source.", "data": [{"protein": "B1", "values": [{"measurement": "binding result", "setting": "cross-linking", "result": "binds"}]}, {"protein": "B2", "values": [{"measurement": "stoichiometry N", "setting": "AUC", "result": 2}]}, {"protein": "B3", "values": [{"measurement": "stoichiometry N", "setting": "AUC", "result": 2}]}]}
